Drawing on patent US20250011363A1, “OPTIMIZED SHORTENED PEPTIDE THAT BINDS TO ACETYLCHOLINE RECEPTOR, AND USE THEREOF” (SKINMED CO., LTD., priority 2021, published 2025), this text covers Binding affinity for 141 substances.

This assay deals with acetylcholine receptor (Homo sapiens, UniProt P02708). The assay is described as follows: SPR binding affinity (RU) of optimized 5mer/6mer/7mer peptides, Examples 6-7. The settings on record: SPR, peptides tested at 10 μM. The gist of the method: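 600 peptides per series (5mer, 6mer-1, 6mer-2), made from high- or low-frequency amino acid combinations, are screened by SPR at 10 μM; binding is recorded in RU.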
On the technique in general: In SPR one partner is held on a chip, and binding of the other changes the refractive index at the surface.

The mark [1] stands for this setting: Resonance Units, 5mer Bottom sequence (bottom combinations).

acetylcholine receptor, sequence (P02708 21-457): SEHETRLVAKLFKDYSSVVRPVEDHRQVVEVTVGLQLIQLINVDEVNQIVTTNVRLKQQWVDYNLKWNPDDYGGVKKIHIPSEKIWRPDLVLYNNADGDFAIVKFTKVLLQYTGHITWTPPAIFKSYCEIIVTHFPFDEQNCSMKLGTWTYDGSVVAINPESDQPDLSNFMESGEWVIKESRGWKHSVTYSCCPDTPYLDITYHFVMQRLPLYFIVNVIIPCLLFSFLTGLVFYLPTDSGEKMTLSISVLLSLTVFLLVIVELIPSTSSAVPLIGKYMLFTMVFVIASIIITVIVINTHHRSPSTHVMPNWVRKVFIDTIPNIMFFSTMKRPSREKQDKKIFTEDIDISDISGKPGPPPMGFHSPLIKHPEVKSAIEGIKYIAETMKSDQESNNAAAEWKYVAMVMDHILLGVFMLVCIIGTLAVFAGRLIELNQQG

With 5mer-895 (RFTKK), the Binding affinity (5mer Bottom sequence) is given as 18 Ru.
On the same count and under the same terms, the same measure for 5mer-896 (RYHWR): 27 Ru; for 5mer-897 (KFCER): 30 Ru; for 5mer-898 (RYCMR): 20 Ru.
Turning to 5mer-899 (RYTFR), for the setting “5mer Bottom sequence”, the Binding affinity amounted to 31 Ru.
Still for that read-out and setting: next, 5mer-900 (RHSVK): 29 Ru.
In the case of 5mer-901 (KCTNR), the Binding affinity under setting [1] was found to be 30 Ru.
Same read-out and setting: the same measure for 5mer-902 (REDPK): 23 Ru.
Same read-out and setting: the same measure for 5mer-903 (RHHKR): 21 Ru.
Take 5mer-904 (KPDPK): under setting [1], the Binding affinity amounted to 23 Ru.
Turning to 5mer-905 (RPSPR), the Binding affinity under setting [1] was found to be 30 Ru.
Same read-out and setting: next, 5mer-906 (RKHAK): 31 Ru; 5mer-907 (KDSVR): 18 Ru; 5mer-908 (RCHFK): 25 Ru.
Regarding 5mer-909 (RINVK), the Binding affinity under setting [1] stood at 33 Ru.
Still for that read-out and setting: the same measure for 5mer-910 (RPCFR): 17 Ru.
On the same count and under the same terms, the same measure for 5mer-911 (REHGK): 14 Ru; for 5mer-912 (KKMGR): 16 Ru; for 5mer-913 (KHTFK): 13 Ru.
Still for that read-out and setting: next, 5mer-914 (RPTMR): 26 Ru.
Regarding 5mer-915 (KMTHR), the Binding affinity under setting [1] worked out at 28 Ru.
Same read-out and setting: next, 5mer-916 (RCHER): 12 Ru; 5mer-917 (KCAPR): 11 Ru.
On the same count and under the same terms, the same measure for 5mer-918 (RNNVR): 12 Ru.
Same read-out and setting: next, 5mer-919 (KNNIK): 32 Ru.
Consider 5mer-920 (KPKIK), for which the Binding affinity under setting [1] is listed as 15 Ru.
Still for that read-out and setting: next, 5mer-921 (KKKFK): 21 Ru.
Same read-out and setting: next, 5mer-922 (RMWKR): 14 Ru; 5mer-923 (KCWMK): 19 Ru; 5mer-924 (RNEKK): 27 Ru.
The same measure, in the same setting: next, 5mer-925 (KDCFK): 25 Ru.
For 5mer-926 (RNCWK), the Binding affinity under setting [1] was 22 Ru.
Still for that read-out and setting: next, 5mer-927 (RDEDR): 19 Ru; 5mer-928 (KHMVR): 27 Ru.
Turning to 5mer-929 (KYTFR), the Binding affinity under setting [1] stood at 28 Ru.
Still for that read-out and setting: next, 5mer-930 (RAWVR): 20 Ru; 5mer-931 (RITER): 11 Ru.
Take 5mer-932 (RTAWK): the Binding affinity under setting [1] was 27 Ru.
Turning to 5mer-933 (RYMKK), the Binding affinity under setting [1] stood at 27 Ru.
Same read-out and setting: the same measure for 5mer-934 (KMMMR): 17 Ru.
The same measure, in the same setting: next, 5mer-935 (RETFK): 32 Ru.
On the same count and under the same terms, the same measure for 5mer-936 (RNHKR): 29 Ru.
For 5mer-937 (KASNR), under setting [1], the Binding affinity is recorded as 21 Ru.
On the same count and under the same terms, the same measure for 5mer-938 (RIEFK): 18 Ru; for 5mer-939 (KMHAR): 24 Ru; for 5mer-940 (KCMGK): 18 Ru.
Turning to 5mer-941 (KNHHR), under setting [1], the Binding affinity came out at 21 Ru.
On the same count and under the same terms, next, 5mer-942 (RPSDR): 11 Ru; 5mer-943 (KDKGK): 12 Ru.
Same read-out and setting: next, 5mer-944 (RYEFK): 25 Ru.
On to 5mer-945 (RYEKR), for which the Binding affinity under setting [1] worked out at 23 Ru.
Same read-out and setting: next, 5mer-946 (KYPWR): 32 Ru.
Same read-out and setting: the same measure for 5mer-947 (KDWIR): 27 Ru; for 5mer-948 (KDSFK): 18 Ru.
Turning to 5mer-949 (KMKMK), the Binding affinity under setting [1] came out at 26 Ru.
On the same count and under the same terms, the same measure for 5mer-950 (KDADR): 22 Ru; for 5mer-951 (RYMGR): 18 Ru.
Still for that read-out and setting: the same measure for 5mer-952 (KTMHK): 12 Ru; for 5mer-953 (RKMAR): 23 Ru.
In the case of 5mer-954 (KTEVK), the Binding affinity under setting [1] is on record as 23 Ru.
Same read-out and setting: next, 5mer-955 (KNADK): 14 Ru; 5mer-956 (KPTWK): 19 Ru.
In the case of 5mer-957 (RDCER), under setting [1], the Binding affinity was determined as 30 Ru.
Still for that read-out and setting: the same measure for 5mer-958 (RKWKR): 11 Ru; for 5mer-959 (KPNMK): 29 Ru; for 5mer-960 (RNPGK): 14 Ru.
Still for that read-out and setting: the same measure for 5mer-961 (KIANR): 32 Ru; for 5mer-962 (RIWKR): 23 Ru.
5mer-963 (RAPNK): the Binding affinity under setting [1] was 24 Ru.
Take 5mer-964 (KYTDR): under setting [1], the Binding affinity worked out at 22 Ru.
Still for that read-out and setting: the same measure for 5mer-965 (KMEIR): 30 Ru; for 5mer-966 (RPSAK): 32 Ru.
Still for that read-out and setting: the same measure for 5mer-967 (KKTHK): 26 Ru; for 5mer-968 (RIPHR): 11 Ru; for 5mer-969 (RNTVR): 27 Ru.
On the same count and under the same terms, next, 5mer-970 (KYMNR): 33 Ru.
As for 5mer-971 (KMTGK), the Binding affinity under setting [1] was 12 Ru.
Same read-out and setting: next, 5mer-972 (KYAKR): 14 Ru; 5mer-973 (RYWAR): 12 Ru; 5mer-974 (RHMMR): 26 Ru.
Turning to 5mer-975 (RFAHK), the Binding affinity under setting [1] came out at 18 Ru.
Still for that read-out and setting: the same measure for 5mer-976 (RETNR): 16 Ru; for 5mer-977 (KNMIR): 16 Ru; for 5mer-978 (RYDHK): 30 Ru.
For the substance 5mer-979 (RHHMK), the Binding affinity under setting [1] was 23 Ru.
On the same count and under the same terms, the same measure for 5mer-980 (RKPHR): 33 Ru; for 5mer-981 (KNDKK): 33 Ru; for 5mer-982 (KFMHK): 12 Ru.
On the same count and under the same terms, the same measure for 5mer-983 (RTTGR): 23 Ru.
In the case of 5mer-984 (KNAHK), the Binding affinity under setting [1] is 11 Ru.
On the same count and under the same terms, next, 5mer-985 (RDPKR): 17 Ru; 5mer-986 (RPMDK): 12 Ru; 5mer-987 (RAHWR): 22 Ru.
For the substance 5mer-988 (RCKWR), the Binding affinity under setting [1] is 17 Ru.
For the substance 5mer-989 (RCTAR), the Binding affinity under setting [1] was determined as 31 Ru.
For the substance 5mer-990 (KEEPK), the Binding affinity under setting [1] came out at 12 Ru.
Still for that read-out and setting: the same measure for 5mer-991 (RPEFR): 24 Ru; for 5mer-992 (RNDKK): 15 Ru; for 5mer-993 (KEKFR): 27 Ru.
Turning to 5mer-994 (KAWVR), the Binding affinity under setting [1] came to 26 Ru.
Same read-out and setting: next, 5mer-995 (KFTDK): 18 Ru; 5mer-996 (RMTKK): 32 Ru.
On the same count and under the same terms, the same measure for 5mer-997 (RYPHR): 30 Ru.
Same read-out and setting: the same measure for 5mer-998 (RCTAK): 18 Ru; for 5mer-999 (KTKFK): 19 Ru; for 5mer-1000 (KHCWR): 20 Ru.
Take 5mer-1001 (KPCGK): under setting [1], the Binding affinity is 33 Ru.
On the same count and under the same terms, the same measure for 5mer-1002 (KEDNK): 12 Ru; for 5mer-1003 (RMTVR): 11 Ru; for 5mer-1004 (RDADR): 30 Ru.
Still for that read-out and setting: the same measure for 5mer-1005 (RTHGR): 30 Ru.
Same read-out and setting: next, 5mer-1006 (KEPER): 17 Ru; 5mer-1007 (RDMMR): 30 Ru; 5mer-1008 (KDSNR): 11 Ru.
With 5mer-1009 (KMCAK), under setting [1], the Binding affinity is 29 Ru.
For the substance 5mer-1010 (KCDNK), under setting [1], the Binding affinity is given as 16 Ru.
Same read-out and setting: the same measure for 5mer-1011 (KTDMK): 25 Ru; for 5mer-1012 (RHKVR): 22 Ru; for 5mer-1013 (KCCVK): 19 Ru.
In the case of 5mer-1014 (RKNKR), the Binding affinity under setting [1] came out at 23 Ru.
As for 5mer-1015 (RCWMK), the Binding affinity under setting [1] was found to be 30 Ru.
Regarding 5mer-1016 (KYTMR), under setting [1], the Binding affinity was 28 Ru.
On to 5mer-1017 (RCTWK), for which the Binding affinity under setting [1] is recorded as 24 Ru.
The same measure, in the same setting: next, 5mer-1018 (KFWAK): 20 Ru; 5mer-1019 (RFKFK): 28 Ru; 5mer-1020 (KCKVK): 12 Ru.
Regarding 5mer-1021 (KITHK), the Binding affinity under setting [1] is on record as 26 Ru.
Take 5mer-1022 (KIADK): under setting [1], the Binding affinity came out at 29 Ru.
Regarding 5mer-1023 (RYCKK), the Binding affinity under setting [1] was 13 Ru.
Turning to 5mer-1024 (KIDNK), under setting [1], the Binding affinity stood at 26 Ru.
Same read-out and setting: the same measure for 5mer-1025 (RHKWK): 25 Ru.
Still for that read-out and setting: the same measure for 5mer-1026 (RNAVR): 20 Ru; for 5mer-1027 (KNTNR): 28 Ru.
Regarding 5mer-1028 (RMAMR), the Binding affinity under setting [1] is 28 Ru.
Still for that read-out and setting: next, 5mer-1029 (KADIK): 25 Ru; 5mer-1030 (RISDK): 18 Ru.
In the case of 5mer-1031 (RKEER), the Binding affinity under setting [1] is 13 Ru.
On the same count and under the same terms, the same measure for 5mer-1032 (RHHMR): 23 Ru; for 5mer-1033 (REWDK): 28 Ru; for 5mer-1034 (RFAKK): 14 Ru.
The same measure, in the same setting: next, 5mer-1035 (KEHVR): 19 Ru.
